Data on 5 substances can be found in US20160243213A9.

In assay [1] the target is HPV-16 E7 wild type (E7WT) expressed by RMA-E7 transfectants (HPV-16) (UniProt P03129).
Assay [2] has the same target. The source holds these as a separate data set.

In assay [1], “in vitro restimulated spleen cells of C57BL/6 mice inoculated with the DNA vaccine pTHamp-E7SH (cells without a defined receptor)” displayed a 51Cr-release assay (after 1st in vitro restimulation), specific lysis of 26%. Same read-out and setting: as for “in vitro restimulated spleen cells of C57BL/6 mice inoculated with RPBLAs containing RX3-Gfp (cells without a defined receptor)”, the figure is 12%.

In turn, “in vitro restimulated spleen cells of C57BL/6 mice inoculated with RPBLAs containing RX3-E7SH (cells without a defined receptor)” gave a 51Cr-release assay (after 1st in vitro restimulation), Specific Lysis (%) in assay [2] of 33%. In assay [2], “in vitro restimulated spleen cells of C57BL/6 mice inoculated with the empty plasmid pTHamp (cells without a defined receptor)” showed a 51Cr-release assay (after 1st in vitro restimulation), Specific Lysis (%) of 8%. Same read-out and setting: the value for “in vitro restimulated spleen cells of C57BL/6 mice inoculated with RPBLAs containing RX3-E7SH and incomplete Freund's adjuvant (cells without a defined receptor)” was 29%.
